Test results taken from publication PMC9482650, “Quantitative fragmentomics allow affinity mapping of interactomes” (Nature Communications, 2022).

T1: DFNB31_1, Q9P202
T1 sequence (Q9P202 135-233, limits assumed, looked up): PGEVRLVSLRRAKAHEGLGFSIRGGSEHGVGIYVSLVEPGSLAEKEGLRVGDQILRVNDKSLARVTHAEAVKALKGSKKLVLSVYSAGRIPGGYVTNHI

T2: GRIP1_4, Q9Y3R0
T2 sequence (Q9Y3R0 467-571, limits assumed, looked up): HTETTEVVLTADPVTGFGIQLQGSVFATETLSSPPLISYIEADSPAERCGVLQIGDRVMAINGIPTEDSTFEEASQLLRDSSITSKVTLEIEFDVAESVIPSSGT

T3: NHERF3_4, Q5T2W1
T3 sequence (Q5T2W1 373-468, limits assumed, looked up): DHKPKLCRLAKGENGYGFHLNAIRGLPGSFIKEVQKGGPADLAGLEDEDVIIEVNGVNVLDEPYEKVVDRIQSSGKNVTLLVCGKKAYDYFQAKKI

T4: PDZD7_3, Q9H5P4
T4 sequence (Q9H5P4 857-944, limits assumed, looked up): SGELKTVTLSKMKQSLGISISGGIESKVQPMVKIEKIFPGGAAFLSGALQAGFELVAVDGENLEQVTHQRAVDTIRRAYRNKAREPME

T5: TX1BP3, O14907
T5 sequence (O14907 10-122, limits assumed, looked up): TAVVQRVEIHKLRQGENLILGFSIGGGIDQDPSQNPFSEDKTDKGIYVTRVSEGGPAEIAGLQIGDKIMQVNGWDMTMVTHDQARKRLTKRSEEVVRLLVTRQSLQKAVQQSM

T6: APBA1_1, Q02410
T6 sequence (Q02410 651-752, limits assumed, looked up): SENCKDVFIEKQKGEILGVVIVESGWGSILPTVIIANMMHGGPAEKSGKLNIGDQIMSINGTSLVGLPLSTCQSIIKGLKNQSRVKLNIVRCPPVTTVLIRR

T7: DVL3, Q92997
T7 sequence (Q92997 244-331, limits assumed, looked up): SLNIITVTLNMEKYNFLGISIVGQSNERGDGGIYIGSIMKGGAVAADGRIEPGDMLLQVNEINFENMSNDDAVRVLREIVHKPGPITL

T8: GRIP1_3, Q9Y3R0
T8 sequence (Q9Y3R0 247-346, limits assumed, looked up): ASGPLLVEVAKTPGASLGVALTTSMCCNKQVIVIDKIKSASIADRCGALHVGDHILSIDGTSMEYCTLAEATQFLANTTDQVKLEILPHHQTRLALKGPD

T9: HTRA3, P83110
T9 sequence (P83110 354-453, limits assumed, looked up): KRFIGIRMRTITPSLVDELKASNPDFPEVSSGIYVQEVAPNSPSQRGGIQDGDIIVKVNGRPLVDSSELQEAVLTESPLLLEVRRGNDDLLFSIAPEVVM

T10: SYNJ2BP, P57105
T10 sequence (P57105 8-110, limits assumed, looked up): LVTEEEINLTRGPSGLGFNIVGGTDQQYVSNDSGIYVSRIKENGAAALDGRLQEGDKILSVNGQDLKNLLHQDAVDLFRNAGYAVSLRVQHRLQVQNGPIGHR


What was measured:
Test in all cases: holdup assay
Set-up in all cases: key: below the threshold = too weak to quantify, mostly under pKd 3.1 to 4
DFNB31_1, Q9P202 = target: T1, DFNB31_1, Q9P202
GRIP1_4, Q9Y3R0 = target: T2, GRIP1_4, Q9Y3R0
MAGI2_3, Q86UL8 = target: MAGI2_3, Q86UL8
NHERF3_4, Q5T2W1 = target: T3, NHERF3_4, Q5T2W1
NHERF4_4, Q86UT5 = target: NHERF4_4, Q86UT5
PDZD7_3, Q9H5P4 = target: T4, PDZD7_3, Q9H5P4
SCRIB_1, Q14160 = target: SCRIB_1, Q14160
TX1BP3, O14907 = target: T5, TX1BP3, O14907
AHNAK1, Q09666 = conditions: plain residues with an end cap or a label only (N-terminal biotin on a linker: ttds)
APBA1_1, Q02410 = target: T6, APBA1_1, Q02410; conditions: plain residues with an end cap or a label only (N-terminal biotin on a linker: ttds)
DLG4_2, P78352 = conditions: plain residues with an end cap or a label only (N-terminal biotin on a linker: ttds)
DVL3, Q92997 = target: T7, DVL3, Q92997; conditions: plain residues with an end cap or a label only (N-terminal biotin on a linker: ttds)
FRMPD4, Q14CM0 = conditions: plain residues with an end cap or a label only (N-terminal biotin on a linker: ttds)
GIPC2, Q8TF65 = conditions: plain residues with an end cap or a label only (N-terminal biotin on a linker: ttds)
GRIP1_3, Q9Y3R0 = target: T8, GRIP1_3, Q9Y3R0; conditions: plain residues with an end cap or a label only (N-terminal biotin on a linker: ttds)
GRIP2_7, Q9C0E4 = conditions: plain residues with an end cap or a label only (N-terminal biotin on a linker: ttds)
HTRA2, O43464 = conditions: plain residues with an end cap or a label only (N-terminal biotin on a linker: ttds)
HTRA3, P83110 = target: T9, HTRA3, P83110; conditions: plain residues with an end cap or a label only (N-terminal biotin on a linker: ttds)
IL16_4, Q14005 = conditions: plain residues with an end cap or a label only (N-terminal biotin on a linker: ttds)
Inadl_10, Q8NI35 = conditions: plain residues with an end cap or a label only (N-terminal biotin on a linker: ttds)
Inadl_2, Q8NI35 = conditions: plain residues with an end cap or a label only (N-terminal biotin on a linker: ttds)
Inadl_3, Q8NI35 = conditions: plain residues with an end cap or a label only (N-terminal biotin on a linker: ttds)
LNX1_1, Q8TBB1 = conditions: plain residues with an end cap or a label only (N-terminal biotin on a linker: ttds)
MAST2, Q6P0Q8 = conditions: plain residues with an end cap or a label only (N-terminal biotin on a linker: ttds)
SCRIB_2, Q14160 = conditions: plain residues with an end cap or a label only (N-terminal biotin on a linker: ttds)
SYNJ2BP, P57105 = target: T10, SYNJ2BP, P57105; conditions: plain residues with an end cap or a label only (N-terminal biotin on a linker: ttds)
TJP1_3, Q07157 = conditions: plain residues with an end cap or a label only (N-terminal biotin on a linker: ttds)
TJP2_1, Q9UDY2 = conditions: plain residues with an end cap or a label only (N-terminal biotin on a linker: ttds)
[1] = plain residues with an end cap or a label only (N-terminal biotin on a linker: ado-ado)
[2] = plain residues with an end cap or a label only (N-terminal biotin on a linker: ttds)

Sequence of AHNAK1, Q09666 (Q09666 4-100): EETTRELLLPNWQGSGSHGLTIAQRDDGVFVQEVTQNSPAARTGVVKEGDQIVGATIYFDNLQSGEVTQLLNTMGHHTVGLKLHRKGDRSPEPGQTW
Sequence of FRMPD4, Q14CM0 (Q14CM0 67-160): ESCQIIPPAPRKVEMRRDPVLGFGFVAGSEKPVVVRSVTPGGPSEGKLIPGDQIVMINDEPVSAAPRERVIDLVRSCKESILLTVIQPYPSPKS
Sequence of IL16_4, Q14005 (Q14005 1229-1329): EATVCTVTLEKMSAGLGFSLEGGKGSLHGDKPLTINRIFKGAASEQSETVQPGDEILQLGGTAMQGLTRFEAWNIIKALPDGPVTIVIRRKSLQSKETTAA
Sequence of Inadl_10, Q8NI35 (Q8NI35 1673-1763): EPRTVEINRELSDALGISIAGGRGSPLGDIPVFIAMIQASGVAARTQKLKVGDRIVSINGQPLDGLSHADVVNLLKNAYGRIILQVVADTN
Sequence of NHERF4_4, Q86UT5 (Q86UT5 464-550): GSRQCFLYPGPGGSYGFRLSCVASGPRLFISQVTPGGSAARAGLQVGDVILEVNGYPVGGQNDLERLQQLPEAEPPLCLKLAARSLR
Sequence of TJP1_3, Q07157 (Q07157 416-512): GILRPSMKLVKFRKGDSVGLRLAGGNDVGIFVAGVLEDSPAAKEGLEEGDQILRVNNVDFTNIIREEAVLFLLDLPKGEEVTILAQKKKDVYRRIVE
Sequence of GRIP2_7, Q9C0E4 (Q9C0E4 934-1023): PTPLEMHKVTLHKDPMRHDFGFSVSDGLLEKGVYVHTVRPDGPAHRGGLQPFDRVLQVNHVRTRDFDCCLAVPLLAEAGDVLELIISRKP
Sequence of SCRIB_1, Q14160 (Q14160 718-814): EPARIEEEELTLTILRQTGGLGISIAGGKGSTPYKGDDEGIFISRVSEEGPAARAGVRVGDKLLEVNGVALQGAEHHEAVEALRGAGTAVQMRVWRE
Sequence of TJP2_1, Q9UDY2 (Q9UDY2 24-128): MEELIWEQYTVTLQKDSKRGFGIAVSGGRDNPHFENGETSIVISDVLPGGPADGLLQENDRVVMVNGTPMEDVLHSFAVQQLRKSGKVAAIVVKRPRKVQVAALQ
Sequence of Inadl_2, Q8NI35 (Q8NI35 238-335): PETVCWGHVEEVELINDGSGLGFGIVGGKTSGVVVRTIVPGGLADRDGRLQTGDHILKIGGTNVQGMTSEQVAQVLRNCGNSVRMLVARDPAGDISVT
Sequence of GIPC2, Q8TF65 (Q8TF65 112-203): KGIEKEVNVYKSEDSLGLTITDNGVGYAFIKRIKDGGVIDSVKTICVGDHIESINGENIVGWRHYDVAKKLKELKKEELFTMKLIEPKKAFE
Sequence of SCRIB_2, Q14160 (Q14160 857-960): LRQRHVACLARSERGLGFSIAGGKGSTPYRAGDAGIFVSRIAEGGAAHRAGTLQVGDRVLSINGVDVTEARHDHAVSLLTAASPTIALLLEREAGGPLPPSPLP
Sequence of HTRA2, O43464 (O43464 355-458): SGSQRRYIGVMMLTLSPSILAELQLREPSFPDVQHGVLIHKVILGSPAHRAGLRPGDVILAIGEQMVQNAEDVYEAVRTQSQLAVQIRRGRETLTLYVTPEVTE
Sequence of DLG4_2, P78352 (P78352 155-259): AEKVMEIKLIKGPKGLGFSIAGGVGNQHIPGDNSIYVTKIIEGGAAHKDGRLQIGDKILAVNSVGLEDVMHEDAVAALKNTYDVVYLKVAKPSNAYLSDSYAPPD
Sequence of Inadl_3, Q8NI35 (Q8NI35 359-469): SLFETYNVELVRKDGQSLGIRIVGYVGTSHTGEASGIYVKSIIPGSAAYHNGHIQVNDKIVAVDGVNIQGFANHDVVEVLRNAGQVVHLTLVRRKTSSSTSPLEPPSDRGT
Sequence of MAGI2_3, Q86UL8 (Q86UL8 600-682): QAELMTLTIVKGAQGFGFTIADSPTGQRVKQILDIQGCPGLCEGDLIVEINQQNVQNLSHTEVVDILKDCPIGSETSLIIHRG
Sequence of MAST2, Q6P0Q8 (Q6P0Q8 1099-1202): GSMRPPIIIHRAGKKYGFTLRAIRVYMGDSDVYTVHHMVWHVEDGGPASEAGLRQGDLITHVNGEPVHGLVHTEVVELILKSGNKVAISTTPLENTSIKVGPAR
Sequence of LNX1_1, Q8TBB1 (Q8TBB1 261-371): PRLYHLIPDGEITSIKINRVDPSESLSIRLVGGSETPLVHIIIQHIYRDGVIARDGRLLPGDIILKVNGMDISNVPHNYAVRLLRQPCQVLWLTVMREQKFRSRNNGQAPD

| Binder | pKd (AHNAK1, Q09666) | pKd (APBA1_1, Q02410) | pKd (DFNB31_1, Q9P202; [2]) | pKd (DLG4_2, P78352) | pKd (DVL3, Q92997) | pKd (FRMPD4, Q14CM0) | pKd (GIPC2, Q8TF65) | pKd (GRIP1_3, Q9Y3R0) | pKd (GRIP1_4, Q9Y3R0; [2]) | pKd (GRIP2_7, Q9C0E4) | pKd (HTRA2, O43464) | pKd (HTRA3, P83110) | pKd (IL16_4, Q14005) | pKd (Inadl_10, Q8NI35) | pKd (Inadl_2, Q8NI35) | pKd (Inadl_3, Q8NI35) | pKd (LNX1_1, Q8TBB1) | pKd (MAGI2_3, Q86UL8; [2]) | pKd (MAST2, Q6P0Q8) | pKd (NHERF3_4, Q5T2W1; [2]) | further results |
| --- | --- | --- | --- | --- | --- | --- | --- | --- | --- | --- | --- | --- | --- | --- | --- | --- | --- | --- | --- | --- | --- |
| KRPEMTSSSV [MUC3B, MUC3A, Q02505;Q9H195] | – | – | – | – | – | – | – | – | – | – | – | – | – | – | – | – | – | – | – | – | pKd (DFNB31_1, Q9P202; [1]): 4.24; pKd (GRIP1_4, Q9Y3R0; [1]): below the threshold; pKd (MAGI2_3, Q86UL8; [1]): below the threshold; pKd (NHERF3_4, Q5T2W1; [1]): below the threshold; pKd (NHERF4_4, Q86UT5; [1]): below the threshold; pKd (PDZD7_3, Q9H5P4; [1]): below the threshold; pKd (SCRIB_1, Q14160; [1]): below the threshold; pKd (TX1BP3, O14907; [1]): 4.5 |
| RSLEEEESQL [GRASP, Q7Z6J2] | 3.93 | below the threshold | 3.86 | 3.84 | 3.96 | 4.48 | 4.17 | below the threshold | 3.5 | below the threshold | 3.69 | below the threshold | 3.54 | below the threshold | below the threshold | below the threshold | below the threshold | 3.65 | 5.6 | below the threshold | pKd (NHERF4_4, Q86UT5; [2]): below the threshold; pKd (PDZD7_3, Q9H5P4; [2]): 3.98; pKd (SCRIB_1, Q14160; [2]): 3.55; pKd (SCRIB_2, Q14160): 3.87; pKd (SYNJ2BP, P57105): 3.86; pKd (TJP1_3, Q07157): below the threshold; pKd (TJP2_1, Q9UDY2): 3.65; pKd (TX1BP3, O14907; [2]): 3.84 |
| SRPQRTQTQV [HPV67-E6, A4U7F2] | below the threshold | below the threshold | below the threshold | 4.96 | below the threshold | below the threshold | below the threshold | below the threshold | below the threshold | below the threshold | below the threshold | below the threshold | below the threshold | below the threshold | below the threshold | below the threshold | below the threshold | below the threshold | 5.27 | below the threshold | pKd (NHERF4_4, Q86UT5; [2]): below the threshold; pKd (PDZD7_3, Q9H5P4; [2]): 3.65; pKd (SCRIB_1, Q14160; [2]): below the threshold; pKd (SCRIB_2, Q14160): 3.4; pKd (SYNJ2BP, P57105): 4.4; pKd (TJP1_3, Q07157): below the threshold; pKd (TJP2_1, Q9UDY2): 3.86; pKd (TX1BP3, O14907; [2]): 4.03 |
| SVWLRKETRV [CYSLTR2, Q9NS75] | below the threshold | below the threshold | 4.03 | 5.38 | below the threshold | below the threshold | below the threshold | below the threshold | below the threshold | below the threshold | 3.5 | below the threshold | below the threshold | below the threshold | below the threshold | below the threshold | 3.59 | 4.73 | 5.27 | 3.48 | pKd (NHERF4_4, Q86UT5; [2]): below the threshold; pKd (PDZD7_3, Q9H5P4; [2]): 4.86; pKd (SCRIB_1, Q14160; [2]): 4.28; pKd (SCRIB_2, Q14160): 4.42; pKd (SYNJ2BP, P57105): 5.38; pKd (TJP1_3, Q07157): below the threshold; pKd (TJP2_1, Q9UDY2): 4.45; pKd (TX1BP3, O14907; [2]): 4.75 |
